# Reference: the Human Domainome abundance scans (Beltran et al. 2025)
# ± gives the uncertainty stated by the source.
# B1: Probable E3 ubiquitin-protein ligase MID2, residues 191 to 235; numbered along this chain, Q9UJV3 (parent)
# chain: RGITCLDHENEKVNMYCVSDDQLICALCKLVGRHRDHQVASLNDR
# Variants of: B1
# Experiment: abundance fitness (aPCA) (normalised: wild type 0, dead -1); higher = more abundant; growth selection in yeast, the domain comes from the species named
# Settings: Homo sapiens
row,Variant,abundance fitness
1,N14K,0.015 ± 0.069
2,N14Q,0.119 ± 0.093
3,N14W,-0.482 ± 0.11
4,N14G,-0.021 ± 0.05
5,N14R,-0.087 ± 0.052
6,N14C,-0.204 ± 0.12
7,N14D,-0.132 ± 0.1
8,N14H,0.117 ± 0.096
9,N14T,0.049 ± 0.068
10,N14M,-0.487 ± 0.19
11,N14A,0 ± 0.062
12,N14E,0.104 ± 0.069
13,N14L,-0.124 ± 0.074
14,N14P,-0.434 ± 0.23
15,N14V,-0.055 ± 0.06
16,N14S,0.06 ± 0.075
17,Q22S,0.049 ± 0.056
18,Q22M,0.054 ± 0.068
19,Q22W,-0.515 ± 0.13
20,Q22R,0.1 ± 0.054
21,Q22E,-0.113 ± 0.085
22,Q22L,-0.177 ± 0.063
23,Q22V,-0.012 ± 0.062
24,Q22I,-0.259 ± 0.19

row,Variant,abundance fitness
1,Q22K,0.05 ± 0.068
2,Q22D,-0.19 ± 0.2
3,Q22P,-0.381 ± 0.1
4,Q22Y,-0.264 ± 0.35
5,Q22T,-0.062 ± 0.12
6,Y16M,-0.321 ± 0.15
7,Y16V,0.023 ± 0.055
8,Y16L,-0.127 ± 0.063
9,Y16N,-0.251 ± 0.1
10,Y16G,0.024 ± 0.055
11,Y16R,0.183 ± 0.05
12,Y16T,-0.392 ± 0.08
13,Y16Q,0.236 ± 0.091
14,Y16W,-0.039 ± 0.071
15,Y16C,-0.176 ± 0.14
16,Y16P,-0.065 ± 0.088
17,Y16D,-0.067 ± 0.12
18,Y16S,-0.178 ± 0.073
19,Y16H,-0.114 ± 0.2
20,Y16A,0.077 ± 0.089
21,Y16K,0.54 ± 0.27
22,K29Y,-0.079 ± 0.14
23,K29L,-0.286 ± 0.092
24,K29P,-0.054 ± 0.082

row,Variant,abundance fitness
1,K29I,-0.037 ± 0.096
2,K29E,-0.039 ± 0.12
3,K29V,-0.149 ± 0.089
4,K29R,0.07 ± 0.06
5,K29W,0.018 ± 0.061
6,K29N,0.153 ± 0.081
7,K29M,-0.029 ± 0.17
8,K29G,0.097 ± 0.052
9,K29F,-0.132 ± 0.2
10,K29Q,-0.016 ± 0.063
11,K29D,-0.211 ± 0.13
12,K29A,0.063 ± 0.057
13,K29H,-0.032 ± 0.39
14,K29S,0.059 ± 0.06
15,K29C,-0.144 ± 0.13
16,V31I,-0.091 ± 0.075
17,V31G,0.107 ± 0.052
18,V31F,-0.046 ± 0.17
19,V31N,0.184 ± 0.12
20,V31M,-0.104 ± 0.079
21,V31E,0.149 ± 0.062
22,V31T,0.131 ± 0.086
23,V31Q,0.152 ± 0.062
24,V31K,0.131 ± 0.09

row,Variant,abundance fitness
1,V31H,0.108 ± 0.1
2,V31D,-0.022 ± 0.098
3,V31L,-0.122 ± 0.058
4,V31W,-0.428 ± 0.084
5,V31S,0.06 ± 0.05
6,V31Y,-0.117 ± 0.084
7,V31P,0.014 ± 0.057
8,C28T,-0.541 ± 0.12
9,C28Y,-1.14 ± 0.3
10,C28Q,-0.505 ± 0.24
11,C28M,-0.942 ± 0.15
12,C28K,-0.906 ± 0.14
13,C28W,-0.997 ± 0.18
14,C28P,-0.439 ± 0.12
15,C28E,-0.897 ± 0.2
16,C28G,-0.58 ± 0.062
17,C28R,-1.05 ± 0.081
18,C28V,-1.11 ± 0.13
19,C28D,-0.469 ± 0.084
20,C28A,-0.805 ± 0.079
21,C28S,-0.678 ± 0.1
22,G32E,-0.248 ± 0.1
23,G32H,-0.185 ± 0.08
24,G32T,-0.339 ± 0.091

row,Variant,abundance fitness
1,G32C,-0.589 ± 0.12
2,G32S,-0.408 ± 0.07
3,G32V,-0.474 ± 0.067
4,G32R,-0.537 ± 0.092
5,G32W,-0.954 ± 0.16
6,G32L,-0.684 ± 0.078
7,G32K,-0.316 ± 0.088
8,G32A,-0.518 ± 0.07
9,G32Q,-0.472 ± 0.081
10,G32D,-0.337 ± 0.23
11,G32M,-0.899 ± 0.17
12,G32I,-0.459 ± 0.23
13,C17P,-0.319 ± 0.14
14,C17Q,-0.369 ± 0.15
15,C17S,-0.157 ± 0.073
16,C17E,-0.163 ± 0.12
17,C17M,-0.517 ± 0.1
18,C17N,-0.212 ± 0.1
19,C17Y,-0.635 ± 0.3
20,C17T,-0.269 ± 0.072
21,C17V,-0.486 ± 0.087
22,C17W,-0.792 ± 0.1
23,C17L,-0.775 ± 0.13
24,C17G,-0.129 ± 0.058

row,Variant,abundance fitness
1,C17R,-0.304 ± 0.068
2,C17K,-0.01 ± 0.35
3,R35A,0.064 ± 0.053
4,R35C,-0.126 ± 0.071
5,D20H,-0.459 ± 0.098
6,D20M,-1.19 ± 0.15
7,D20G,-0.589 ± 0.049
8,D20K,-0.357 ± 0.078
9,D20V,-1.03 ± 0.094
10,D20T,-0.706 ± 0.071
11,D20P,-0.625 ± 0.085
12,D20E,-0.096 ± 0.063
13,D20C,-0.178 ± 0.084
14,D20Y,-1.43 ± 0.25
15,D20L,-1.08 ± 0.11
16,D20N,-0.456 ± 0.44
17,D20A,-0.77 ± 0.071
18,D20W,-0.809 ± 0.067
19,H34A,-0.48 ± 0.062
20,H34Q,-0.319 ± 0.087
21,H34K,-0.402 ± 0.11
22,H34T,-0.473 ± 0.1
23,H34S,-0.387 ± 0.1
24,H34G,-0.383 ± 0.063

row,Variant,abundance fitness
1,H34E,-0.368 ± 0.12
2,H34N,-0.474 ± 0.12
3,H34W,-0.997 ± 0.12
4,H34Y,-0.634 ± 0.29
5,H34V,-0.558 ± 0.081
6,H34L,-1.13 ± 0.19
7,H34M,-0.677 ± 0.096
8,H34P,-0.66 ± 0.15
9,H34D,-0.66 ± 0.13
10,H34F,-0.184 ± 0.16
11,H34R,-0.459 ± 0.064
12,M15P,-0.251 ± 0.07
13,M15K,-0.176 ± 0.12
14,M15F,-0.069 ± 0.25
15,M15A,0.063 ± 0.056
16,M15C,0.259 ± 0.21
17,M15G,0.081 ± 0.053
18,M15L,0.003 ± 0.063
19,M15T,-0.1 ± 0.069
20,M15D,0.001 ± 0.064
21,M15R,-0.118 ± 0.06
22,M15V,-0.277 ± 0.069
23,M15W,0.11 ± 0.058
